Key:
[1] = system: CoREST del 2 (aa 293-482), His-tagged
[2] = system: His-tagged full length (1-482aa) human CoREST

In the case of “histidine epitope-tagged LSD1 (HIS-LSD1), full length (1-851aa) human LSD1”, the “stimulation of LSD1 demethylation activity (nucleosomal substrates)” value [1] was “sufficient to mediate stimulation of LSD1 demethylation activity to a level that is comparable to that of the wildtype CoREST” and the “demethylation of nucleosomal substrates by LSD1 (Western blot with K4-H3 methylation-specific antibodies)” value [2] was “addition of CoREST to the demethylation reaction restored the ability of recombinant LSD1 to demethylate nucleosomal substrates”.

Reference: patent publication US20130210888
